Assay results: patent publication US20160083442

Q: How did the “phosphorylation of ATF2 (in vitro kinase assay, [32P]ATP, phosphorimager)” value ((11R)-71-85) turn out when “purified p38 proteins activated by incubation with active Zap70” was run?
A: incubation with (11R)-71-85, but not (11R)-Ctrl, led to a decrease in phosphorylation of ATF2. In addition, the decrease in ATF2 phosphorylation was dependent on the dose of (11R)-71-85

Q: What about the “phosphorylation of ATF2 (in vitro kinase assay, [32P]ATP, phosphorimager)” value ((11R)-Ctrl) of the same substance?
A: incubation with (11R)-71-85, but not (11R)-Ctrl, led to a decrease in phosphorylation of ATF2
